Reference: a protein production outcome set (Wang et al. 2014)

Assay: label from the status in PepcDB records

Sequence | protein production
MLIIFASGFALRAGTVTVAGVYSEAHYQPLMYDMDSYYNLRLASNLLNEGELSEGGWDRYSYYPPGVPLDYPPLLPHLTVTLYLLFTWLLPGLTDTAFWLPAIIAPLAGVAVFAAARSLDCDDVSATTAGLLATAAPFYFMRTIPGFYDTDMFNLVLPLAILLTLHLSLRDGDWRMAVLSGALMGVFAAAWNGWQLIYSIMALSVILHSLLYRRREPLIFLITSTLLIVLMDPRAIPSIPVGLMKIPVARADPFPDPYANITELQRPGFDDVLMALGPGLLLAGLAGFRSLFRDWRDSMVLPVIILWTLTGAASLLWGIRFSELLTAPLLITSALFLADLGTASRVPPGFRRKLHVAVAIMVVLPSLIISTGQYSALHPRVDDGLLDAADYIRAKTPPDTVVISNWVHGHFFAFMARRPVNFDGRLAYIETAAKRGPGYPLDPRIPGVYREYWHDPGPNDHGPHLADEILSMLASSGDEAYLEVLNATGDPAGSAVILGDVLAVDGSSRAEYLQDRGLDPVASGRVASTLSRRSGYVLVTCDRLIDKGYWILYYGNWNFTGKTRKPVYSTGSIVQGWPLRTSDGLLWDGERISFNGLRVSELYLVDGGVRKVEGDPQGGLVAFVLYDRNRTVVLERGYEDSMFARLVLLGDGGGVFRAVMRSRDVTVWEPIRDWNT | failed
ERREKKNKIMQAKEDFKKMMEEAKFNPRATFSEFAAKHAKDSRFKAIEKMKDREALFNEFVAAARKKEKE | not failed
MSKLSLKIGTYFLILALCIETIAFVSFYKSLSKMRIVEETDALLEKGNRYSKKIKSRERRDEYYKEMKHAEHNKNPKRPVYPEFDITNEAAHLVESESISNSDIAIIITDHNGKIISTSEPVTKDMQKQLTCKTETVPDGGLVVERNWKKSKFITTVSPLNTTKFQGKLYMLLKTSFLENMLLKLMNQFLIISVLTIILTTISVFVFSRVITEPLVKMKRATEKMSKLNKPIQLGIKRNDELGSLAKTIEDLSSELTYMKKERNEFLASVAHELLTPLTYMKGYAKVAKRDSLTKEEREEYLQIIEDETDSVTDLVQDLFMLVQLEQHQFVIKKQKVLLQPFLERMVEKTKTTLTNKQMQLHVYCKDDLEVCIDERRMEQVMLNLLHNAYQHSPENTAITIRVLMETDSFTISVQDEGEGIPEEDIPHIFDRFYRVDKSRTRATGGKGIGLAVAKEIVELHNGSILVTSQLGAGTNFIIELPFE | failed
PNEKFCFEGFLPQKKGRMTKLKSLVDEHRTMVFYESPHRLLKTLTQFAEYFGPERQVSVSREISKIHEETVRGTLSELIEHFTATDPRGEIVIVLAGIDD | not failed
MRETRPNPQEILKEINKNEKDSKRGKLKIFFGYAAGVGKTYAMLEAAHSAIAMGLDVVVGYIEPHTRPETLALLEGLELLPNLEVAYRGLVLREFNLDLALSRKPDLIIVDELAHTNVKGLRHEKRYSDIEELLDAGIDVYTTLNVQHIESLNDVVASITNIVVKERIPDRIFKNAFQIELIDVDPSVLIERLNSGKIYVKNQAKKALKNFFIRENLVALRELALRETANSVNKEVMINKNENFYHTNEHILVCLSSSPSNSKVIRTSARMAEAFHGKFTALFVETTSSRELKEGNIERLREHVKLAKDLGAKIETVYGDDVAYQVSEFSKISSVSKVIIGRTKKKRHLWSRFGIVDRLIELAPELDVYIIPDEEENVEDINKICLNKEKITIKDSLKTLGILIITIIISLFFENLGFSEANIIIVFILGVLIIAKETYGRIYGVISSLFSVLLFNFFFTEPKFTFNAYDSSYIFTFFIMLVSALITSTLTNKVKVQANKSAITAYRTNILLESSSELGRCSDLEEIILKSQEQVSRLVKKPVVVYKAKNSQIENIYNYKFKDGSELSDKYINLDEQGVVLWVINNRKYAGKGTETLPGAKAMYIPVLGQEDIGIVIGIILEEGEELEEGEKSLLIAMINQVSFVIDNYILEEAKKQALMQAENEKFKANLLRAVSHDLRTPLTSISGSASLLLNNNFDEETKRKLTLDIYDDSIWLINLVENLLSVSRIDNGNINLNREAQLVEEIILEALQHVNRNACDYNIEIDLKDELLMVNADVRLIIQVIINIVDNAIKYTEKGSNIKISAFSKGDNVIIEIADNGVGISKEDKEHIFDMFFTSKKNISDSRRGLGLGLALCKSIINVHEGEIYVRDNKPRGTIIGFSLQRFEVNNNETSNFSY | failed
MSSLGSRSSTSIQPVILCGGSGTRLWPLSRQSYPKQFMPLLGGRSLLALTLERVSGLSSHPWCVASTEHRFLVIDAFEQCQLNGQVLLEPSARNTAAAIAVAALHAEDDALLLFCPADHYIPDAPAFVERVRQAQVAALDGALVTFGVFPTYPSSAYGYIEASAPWQDSGALHVQRFIEKPSATQAAELLLKGNMYWNAGIFLGLAREWRRALELHAPDILAACRDALREAESPVISRSGQTTVQSVVLHEPSFDACRSQSIDYAVMEHHRPICAVPFNGAWSDVGSWNAVADLSSADDKGNSSQGDAHLFDCQRTYVHAAGRRPVVALGLEDVCIVDTDDAVLVMPMSRAEDIKSVVGQLTDRSVAQALLHRRVARPWGWYDSLDQGERFQVKRIGVKPGASLSLQLHHHRAEHWTVVKGTAEITCGDRVFLLSENQSTYIPLGQRHRLHNPGKVELEIIEVQSGSYLAEDDIVRLEDNYGRTAPHCPGPAEADSTLIEQ | failed
MNKKRIVFGLLSFFLPIFLVFGGLLFFLLLLTSTSDTSKNDCIQPSINNPTDATDTPKSIEQFVKSHKDAYLLSWKAGGFLPSASISQTMVENGFNFTNPSGTSFWQAHNMGGVKTSKKEDFPVTLATFGQDSVDISGTKPGSNVGDGTGGAYTWFKDYNAGIVGKAEFMAHQTLYTGAINNTDGLSTLSAIYSGGWATDPTYLMKLQATYNSLGKQFQWLDQEAIQKYGNAPFKKSELVLNIPGKSPITNEKYGKNSDCVVTSDTSDQVTGQNTAPSLEVPSAYKGKLTLPPIDSNDYAGNNYPFGQCTWYAYNRMAQIGKPIEWFSGDGGNGAGWANSARAKGYTVVKVKPSVGWAASMQGGIGGSAPPYGHVAVVEYVNSDGSILVSEANVINQGSGTRSWRVLDRATVEQIDFIQGKGALEHHHHHH | failed
MDGASRENPGLAAAGGAVRDGNENWVGVFALNIEICSAPLAELWGLYYGLHIVWEQGITRLELEVDSKIVVGFLQTGIPDSHPLSFLLRLCYGFISRDWLVRISHVYREVNRLADGLANYAFSLPLGLYVFNSVPDSIASFVLEDARMLEEYRMKFWLLEDLGLRHCGNVKANGFHRVSAYPREKSHGRHRLYVLHY | failed
MSLTNDERILSWNETPSKPRYTPPPGAIDAHCHVFGPMAQFPFSPKAKYLPRDAGPDMLFALRDHLGFARNVIVQASCHGTDNAATLDAIARAQGKARGIAVVDPAIDEAELAALHEGGMRGIRFNFLKRLVDDAPKDKFLEVAGRLPAGWHVVIYFEADILEELRPFMDAIPVPIVIDHMGRPDVRQGPDGADMKAFRRLLDSREDIWFKATCPDRLDPAGPPWDDFARSVAPLVADYADRVIWGTDWPHPNMQDAIPDDGLVVDMIPRIAPTPELQHKMLVTNPMRLYWSEEMEGHHHHHH | not failed
MTLRPDPTFYPSAKLAMEGPVEKLAFTLMLSPDASKPDGLAVVDVDPTSEKFGQIVHQLIMPNKGDEFHHFGWNACSSALSPLTGHAFLERRYLIIPGIRSSRIYIVDVKEPLKAKIHKIIEPEEVFAKTGYSRPHTIHCGPEGIYVSTLGGGGEDGTDGPPGIFILDCETFEILGRYEMDRGEQTKHYDFWWNLPRDYMVSSEWGLPPQFENGIVPEDLLSNKYGHKIHFWKLRDRKNVQTIDLGANHQMALEIRPAHDPSKDYGFCGVVVDTTNLQGAIFTWWQKDDGTFEAKKTITIDPVPADADDLPDLLKGFGACPPLVTDIDLSLDDKYLYVACWGLGEMHQYDVSDPMNPVLTGKVEIGGIVKKTPHPNGKTFGYGPQMVEISRDGKRVYWTNSLYSTWDEQFYPGDRGAAMVMANVGENGGLTLDKDFWVDFPAGYRSHQIRLEGGDCSTDSFCYPSV | failed
MDTNNNIEKEILALVKQNPKVSLIEYENYFSQLKYNPNASKSDIAFFYAPNQVLCTTITAKYGALLKEILSQNKVGMHLAHSVDVRIEVAPKIQINAQSNINYKAIKTSVKDSYTFENFVVGSCNNTVYEIAKKVAQSDTPPYNPVLFYGGTGLGKTHILNAIGNHALEKHKKVVLVTSEDFLTDFLKHLDNKTMDSFKAKYRHCDFFLLDDAQFLQGKPKLEEEFFHTFNELHANSKQIVLISDRSPKNIAGLEDRLKSRFEWGITAKVMPPDLETKLSIVKQKCQLNQITLPEEVMEYIAQHISDNIRQMEGAIIKISVNANLMNASIDLNLAKTVLEDLQKDHAEGSSLENILLAVAQSLNLKSSEIKVSSRQKNVALARKLVVYFARLYTPNPTLSLAQFLDLKDHSSISKMYSGVKKMLEEEKSPFVLSLREEIKNRLNELNDKKTAFNSSE | failed
MNSNANNTPIAIGISQVFPCSYLDGQQEQLLVIQEETLDPILFERLLAIGFRRSGSAIYKPRCPRCSACQPIRVPIQEFVPSKRQKRTLAHNRDLTWRITTEHTETQYALYEKYIRERHFDGPMYPPSKAQYEQFLFCHWLPPTFIEVYDDNRLVAVAVTDTLPNSFSAIYSYFDPDEERRSLGVLLILLQCRLAKLQGKAFLYLGYQIDANRKMSYKRLYRPYQILTHQGWEYSQVCLEHHHHHH | failed
MAKNDRKEPYPVINILECKACGRCLLACPKDVLFMSENLNARGYHYIEYKGEGCSGCASCYYTCPEPLALEIHIPLKKEEAE | failed
MVGFKPTDVPPTAAVKFIGAGTAACIADLFTFPLDTAKVRLQIQGESKAVHMKTASYKGVFGTISTMVKMEGPKSLYNGLAAGLQRQMSFASVRIGLYDSVKQFYTKGSEHAGIGSRLAAGCTTGAMAVAVAQPTDVVKVRFQAQANSSANRRYKGTMDAYRTIAREEGMRGLWKGTVPNITRNAIVNCTELVTYDLIKDSILKANIMTDNLPCHFTSAFGAGFCTTVIASPVDVVKTRYMNSAKGQYTSALNCALTMFRKEGPRAFYKGFMPSFLRLGSWNVVMFVTYEQLKRAMMSAQRSREAPF | failed
MVERTAVFPAGRHSLYAEHRYSAAIRSGDLLFVSGQVGSREDGTPEPDFQQQVRLAFDNLHATLAAAGCTFDDIIDVTSFHTDPENQFEDIMTVKNEIFSAPPYPNWTAVGVTWLAGFDFEIKVIARIPEQ | not failed
MNNLFAAPTPEEHAALLQEIGPLPLSGQAWPDWVRILAWIVLAVIGVQIVTTAIGLPPGQVNPVLAGTIILCFLGLALVSWHMQISVTRIDESGLRQTWITRREVAWQDIQFAKFVPLLFSKRLVVFTRHGRPIVFQGGTRDLQVAFAKISLLYRRKR | failed
MSSNNINSIISKIQQKNTATVITVGNYKGGAGKTTNVVLLAYKLAKKGLKVCVLDLDPQSNATKSLLLTKSSLYQDEVVTIEKTLMTGISEKNLDGLEVKIMDNLYLLPSYIDFEDFPKYLYKNTSNQREEDYYLKNIFTPLQGKYDIVLIDVPPMSKAVTRNAVICSDYVLISLQTHERSLSGAESYVEELNKLHNEYDLDLEVVGVLPVIHKNNGSVDQYVMEVAKETFGEDNLFENVVPQMERIKRFDVNGITDKDRHDQKVLNLYDKVSDELLDRINYFEEEKEGAING | not failed
MSNFFSVRIETLGCRLNQVESEALAVRFAECGFDVFSKEAETSILPVKLCIVNTCTVTGKAEQKARRLIRLLLKEHEESVILVTGCYAELEADSIEKINKRIIAFSGKKKDELDGLPQFLKDSCLKNKDLKEDTVNLKKNLLIFRNEIYAKEDQQDKSFLLKETERRKSMFKLSSPVFVFHSRASLKIQDGCNNACAYCRIRLARGTSVSLPAEEAVRRIVQIEKNGAAEVVLSGVNLSQYRDETYGGFANLLAKLLENTKKIRLRISSMYPECVDDGILEIVANKRICPHFHLSIQSGSDKILKAMNRPYREADIRMAINNLRKAKDNPFIGCDIITGFPSETEEDFLQTFKMCEDLKIPGIHVFPFSARPGTKAFSMRPKVPEREAGRRASLLSELSGKNYQSYLASCNGKLFFGVIEKPQNNEDLRIVTENYLSLPLVVNKKAENYKGGEGLFVVIKDGNAYLAD | failed
